The values that follow come from article PMC7708039, “Tethering-facilitated DNA ‘opening’ and complementary roles of β-hairpin motifs in the Rad4/XPC DNA damage sensor protein”.

Changes are numbered by the printed parent chain.

Data set [1] concerns the target T1, Rad4-Rad23 delta-beta-hairpin3 (<137>) (UniProt P14736;P32628 101-598+606-632;1-77+230-398, internal_change;internal_change).
T1 sequence 1: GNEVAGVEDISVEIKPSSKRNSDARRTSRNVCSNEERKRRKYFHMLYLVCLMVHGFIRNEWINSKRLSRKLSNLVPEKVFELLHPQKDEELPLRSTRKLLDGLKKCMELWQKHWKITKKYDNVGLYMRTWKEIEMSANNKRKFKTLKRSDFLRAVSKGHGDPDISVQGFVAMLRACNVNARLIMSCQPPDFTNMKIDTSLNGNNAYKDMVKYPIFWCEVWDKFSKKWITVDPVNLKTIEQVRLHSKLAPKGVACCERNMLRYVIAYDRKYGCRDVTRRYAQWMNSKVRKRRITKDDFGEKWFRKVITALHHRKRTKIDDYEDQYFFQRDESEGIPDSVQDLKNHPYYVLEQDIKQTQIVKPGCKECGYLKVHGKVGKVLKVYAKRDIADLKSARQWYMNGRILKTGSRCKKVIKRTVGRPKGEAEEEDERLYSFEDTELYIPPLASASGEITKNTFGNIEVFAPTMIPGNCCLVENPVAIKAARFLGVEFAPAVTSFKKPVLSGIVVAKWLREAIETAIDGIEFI
T1 sequence 2: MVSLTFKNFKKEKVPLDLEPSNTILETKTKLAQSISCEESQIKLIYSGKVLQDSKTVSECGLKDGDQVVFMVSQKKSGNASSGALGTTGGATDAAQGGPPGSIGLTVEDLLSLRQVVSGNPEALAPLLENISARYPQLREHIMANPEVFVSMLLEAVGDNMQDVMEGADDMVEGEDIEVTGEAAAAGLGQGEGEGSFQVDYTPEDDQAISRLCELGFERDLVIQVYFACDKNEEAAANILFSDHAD
The experiment in a line: competitive EMSA; apparent Kns; 1000 nM cold CH7_NX competitor; EMSA: 5 mM BTP-HCl pH 6.8, 75 mM NaCl, 5 mM DTT, 5% glycerol, 0.74 mM CHAPS, 500 ug/ml BSA, room temperature 20 min, 5 nM labeled DNA, 1000 nM cold CH7_NX. The conditions noted are these: protein: recombinant; tags: N-terminal His tag on Rad4; copies: 1;1; label: 32P; fully matched; 5' overhang 1 nt at both ends. (In general: Mobility shift assays separate free from complexed probe on a gel.)

The target of data set [2] is T2, Rad4-Rad23 delta-beta-hairpin2 (<130>) (UniProt P14736;P32628 101-514+528-632;1-77+230-398, internal_change;internal_change).
T2 sequence 1: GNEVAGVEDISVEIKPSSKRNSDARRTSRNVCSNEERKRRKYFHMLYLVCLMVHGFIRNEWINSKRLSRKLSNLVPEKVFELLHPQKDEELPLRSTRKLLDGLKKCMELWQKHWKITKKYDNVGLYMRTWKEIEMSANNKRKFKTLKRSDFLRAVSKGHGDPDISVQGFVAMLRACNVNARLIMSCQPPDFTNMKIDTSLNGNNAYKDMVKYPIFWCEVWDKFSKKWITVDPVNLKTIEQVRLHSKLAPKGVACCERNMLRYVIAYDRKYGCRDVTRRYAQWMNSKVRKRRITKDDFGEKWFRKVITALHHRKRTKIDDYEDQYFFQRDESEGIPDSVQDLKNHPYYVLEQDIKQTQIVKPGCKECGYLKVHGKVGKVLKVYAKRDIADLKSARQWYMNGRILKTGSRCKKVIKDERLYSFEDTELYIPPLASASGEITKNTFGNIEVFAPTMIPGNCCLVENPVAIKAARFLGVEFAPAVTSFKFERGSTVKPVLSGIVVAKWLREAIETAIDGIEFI
T2 sequence 2: T1 sequence 2
Described as above. Conditions: protein: recombinant; tags: N-terminal His tag on Rad4; copies: 1;1; label: 32P; fully matched; 5' overhang 1 nt at both ends.

The target in data set [3] is T3, Rad4-Rad23 WT (no thrombin cleavage) (UniProt P14736;P32628 101-632;1-77+230-398, internal_change).
T3 sequence 1: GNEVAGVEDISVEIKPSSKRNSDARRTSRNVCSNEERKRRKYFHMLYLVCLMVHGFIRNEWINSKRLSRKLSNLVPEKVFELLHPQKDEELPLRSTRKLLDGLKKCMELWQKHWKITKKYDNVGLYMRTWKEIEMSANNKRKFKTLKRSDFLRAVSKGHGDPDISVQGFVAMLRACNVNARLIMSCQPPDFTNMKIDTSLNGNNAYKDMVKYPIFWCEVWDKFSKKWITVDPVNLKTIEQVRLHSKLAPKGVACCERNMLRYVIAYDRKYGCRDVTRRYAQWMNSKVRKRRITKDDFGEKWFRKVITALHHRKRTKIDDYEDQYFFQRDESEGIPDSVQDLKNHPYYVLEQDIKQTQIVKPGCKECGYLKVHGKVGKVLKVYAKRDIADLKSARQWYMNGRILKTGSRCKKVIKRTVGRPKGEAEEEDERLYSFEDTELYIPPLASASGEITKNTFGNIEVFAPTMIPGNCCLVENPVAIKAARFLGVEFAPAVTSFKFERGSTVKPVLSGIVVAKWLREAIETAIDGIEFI
T3 sequence 2: T1 sequence 2
The data set is described as above. The conditions noted are these: protein: recombinant; tags: N-terminal His tag on Rad4; copies: 1;1; label: 32P; fully matched; 5' overhang 1 nt at both ends.

Data set [4] has as its target T1, Rad4-Rad23 delta-beta-hairpin3 (<137>). In words: competitive EMSA; apparent Ks; 1000 nM cold CH7_NX competitor; EMSA: 5 mM BTP-HCl pH 6.8, 75 mM NaCl, 5 mM DTT, 5% glycerol, 0.74 mM CHAPS, 500 ug/ml BSA, room temperature 20 min, 5 nM labeled DNA, 1000 nM cold CH7_NX. The conditions noted are these: protein: recombinant; tags: N-terminal His tag on Rad4; copies: 1;1; label: 32P; 3-bp CCC/CCC mismatch; 5' overhang 1 nt at both ends.

For data set [5], the target named is T2, Rad4-Rad23 delta-beta-hairpin2 (<130>). The description is as above. The conditions noted are these: protein: recombinant; tags: N-terminal His tag on Rad4; copies: 1;1; label: 32P; 3-bp CCC/CCC mismatch; 5' overhang 1 nt at both ends.
For data set [6], the target named is T3, Rad4-Rad23 WT (no thrombin cleavage). The data set is described as above. Conditions: protein: recombinant; tags: N-terminal His tag on Rad4; copies: 1;1; label: 32P; 3-bp CCC/CCC mismatch; 5' overhang 1 nt at both ends.
Data set [7] addresses T4, Rad4-Rad23 WT crosslinkable (<SC32>) (UniProt P14736;P32628 101-632;1-77+230-398, V131C;C132S;internal_change).
T4 sequence 1: T3 sequence 1 with V31C, C32S
T4 sequence 2: T1 sequence 2
The experiment in a line: fluorescence lifetime FRET; non-covalent, equimolar; EMSA: 5 mM BTP-HCl pH 6.8, 75 mM NaCl, 5 mM DTT, 5% glycerol, 0.74 mM CHAPS, 500 ug/ml BSA, room temperature 20 min, 5 nM labeled DNA, 1000 nM cold CH7_NX. The conditions noted are these: protein: recombinant; tags: N-terminal His tag on Rad4 (fluorescence); copies: 1;1; label: tCo donor, tCnitro acceptor; 3-bp CCC/CCC mismatch.

B1: CCC/GGG matched (dsDNA)
DNA 1: TTGACTCGACATCCCCCGCTACAA
DNA 2: ATTGTAGCGGGGGATGTCGAGTCA
With B1, the Kd in data set [1] was approximately 510 nM; in data set [2], approximately 700 nM; in data set [3], approximately 370 nM.

B2: CCC/CCC mismatched (CH10_NX) (dsDNA)
DNA 1: TTGACTCGACATCCCCCGCTACAA
DNA 2: ATTGTAGCCCCGGATGTCGAGTCA
With B2, the figures for the Kd in data set [4], in data set [5] and in data set [6] were approximately 200 nM, approximately 260 nM and approximately 60 nM, respectively.

B3: CCC/CCC_G*_DA (dsDNA)
DNA 1: TTGACTCGACATCCCCCGGTACAA
DNA 2: ATTGTACCCCCGGATGTCGAGTCA
modifications: disulfide-modified guanine G* in top strand
B3: the binding result in data set [7] is listed as “binds”.
